In publication PMC9605926, “Safety of [^177Lu]Lu-NeoB treatment: a preclinical study characterizing absorbed dose and acute, early, and late organ toxicity” (European Journal of Nuclear Medicine and Molecular Imaging, 2022):

Tested on: healthy Balb/c mice
Experiment: Toxicity study, histopathology (5-point grade); 3 i.v. injections at 7-day interval; control group 2 = 3× 1200 pmol [175Lu]Lu-NeoB; treatment groups 1/2/3 = 3× 40 MBq/400 pmol, 80 MBq/800 pmol, 120 MBq/1200 pmol [177Lu]Lu-NeoB
Assay type: in vivo, mouse
Procedure: Five different experimental groups (10 male and 10 female healthy animals per group; n = 100) were included in the radiotoxicity study and treated as follows: control group 1: 3 × vehicle (PBS + kolliphor HS 15 (1 mg/mL)); control group 2: 3 × 1200 pmol [^175Lu]Lu-NeoB; treatment group 1: 3 × 40 MBq/400 pmol [^177Lu]Lu-NeoB; treatment group 2: 3 × 80 MBq/800 pmol [^177Lu]Lu-NeoB; and treatment group 3: 3 × 120 MBq/1200 pmol [^177Lu]Lu-NeoB.
Animals received 3 injections with an interval of 7 days between each injection.
At 5, 19, and 43 weeks after the first injection, 3–4 male and 3–4 female animals of each group were sacrificed by isoflurane overdose after a blood sample was taken by retro-orbital puncture. Hereafter, the axillary lymph nodes, mesenteric lymph nodes, skin, mammary fat pad, sternum, pancreas, adrenal glands, kidneys, spleen, liver, gallbladder, stomach, duodenum, jejunum, ileum, caecum, colon, rectum, testes (M), epididymis (M), seminal vesicles (M), prostate gland (M), ovaries (F), oviducts (F), uterus-cervix (F), vagina (F), bladder, ureters, sciatic nerve, skeletal muscle, femur, lungs, trachea, esophagus, thymus, thyroid gland, aorta, heart, brain, pituitary gland, eyes, harderian glands, tongue, spinal column, and the tail were collected and analyzed macroscopically. All organs and tissues were formalin fixed (4% buffered formaldehyde) and shipped to the European Research Biology Centre (ERBC, Pomezia, Rome, Italy) where histological sampling, embedding, sectioning (5 µm thick), and hematoxylin–eosin staining were performed according to standard guidelines. All organs and tissues were analyzed microscopically by an experienced pathologist. A 5-point grading scale was used: 1: minimal change, 2: mild change, 3: moderate change, 4: marked change, 5: severe change.

[1] = female wk 5, treatment group 1, grade 1
[2] = female wk 5, treatment group 1, grade 2
[3] = female wk 5, treatment group 2, grade 1
[4] = female wk 5, treatment group 2, grade 2
[5] = female wk 5, treatment group 3, grade 1
[6] = female wk 5, treatment group 3, grade 2
[7] = female wk 19, treatment group 1, grade 1
[8] = female wk 19, treatment group 1, grade 2
[9] = female wk 19, treatment group 2, grade 1
[10] = female wk 19, treatment group 2, grade 2
[11] = female wk 19, treatment group 3, grade 1
[12] = female wk 19, treatment group 3, grade 2
[13] = female wk 43, treatment group 1, grade 1
[14] = female wk 43, treatment group 1, grade 4
[15] = female wk 43, treatment group 2, grade 1
[16] = female wk 43, treatment group 2, grade 2
[17] = female wk 43, treatment group 3, grade 2
[18] = female wk 43, treatment group 3, grade 3
[19] = female wk 43, treatment group 3, grade 4
[20] = male wk 5, treatment group 1, grade 1
[21] = male wk 5, treatment group 1, grade 2
[22] = male wk 5, treatment group 3, grade 1
[23] = male wk 5, treatment group 3, grade 2
[24] = male wk 19, treatment group 1, grade 1
[25] = male wk 19, treatment group 1, grade 2
[26] = male wk 19, treatment group 2, grade 1
[27] = male wk 19, treatment group 2, grade 2
[28] = male wk 19, treatment group 3, grade 1
[29] = male wk 19, treatment group 3, grade 2
[30] = male wk 43, treatment group 1, grade 1
[31] = male wk 43, treatment group 1, grade 2
[32] = male wk 43, treatment group 2, grade 1
[33] = male wk 43, treatment group 2, grade 2
[34] = male wk 43, treatment group 3, grade 1
[35] = male wk 43, treatment group 3, grade 2
[36] = male wk 43, treatment group 3, grade 3
[37] = week 19, male treatment group 2

CC(C)CC(CC(C)C)NC(=O)[C@H](Cc1cnc[nH]1)NC(=O)CNC(=O)[C@@H](NC(=O)[C@H](C)NC(=O)[C@H](Cc1c[nH]c2ccccc12)NC(=O)[C@H](CCC(N)=O)NC(=O)[C@@H](Cc1ccccc1)NC(=O)COCC(=O)Nc1ccc(CNC(=O)CN2CCN(CC(=O)O)CCN(CC(=O)O)CCN(CC(=O)O)CC2)cc1)C(C)C [[^177Lu]Lu-NeoB, metal not drawn]
Adrenal glands subcapsular cell hyperplasia, incidence [1]: 1/3 | Urinary bladder inflammatory cell foci, incidence [1]: 1/3 | Adrenal glands subcapsular cell hyperplasia, incidence [2]: 1/3 | Spleen extramedullary haematopoiesis, incidence [2]: 2/3 | Adrenal glands subcapsular cell hyperplasia, incidence [3]: 3/3 | Liver inflammatory cell foci, incidence [3]: 1/3 | Urinary bladder inflammatory cell foci, incidence [3]: 1/3 | Urinary bladder urothelium vacuolation, incidence [3]: 2/3 | Urinary bladder inflammatory cell foci, incidence [4]: 2/3 | Urinary bladder urothelium vacuolation, incidence [4]: 1/3 | Adrenal glands subcapsular cell hyperplasia, incidence [5]: 1/3 | Liver inflammatory cell foci, incidence [5]: 1/3 | Thyroid gland follicular cyst/s, incidence [5]: 1/3 | Urinary bladder inflammatory cell foci, incidence [5]: 1/3 | Urinary bladder urothelium vacuolation, incidence [5]: 1/3 | Spleen extramedullary haematopoiesis, incidence [6]: 1/3 | Urinary bladder inflammatory cell foci, incidence [6]: 2/3 | Urinary bladder urothelium vacuolation, incidence [6]: 2/3 | Brain artifacts, incidence (female wk 5, treatment group 3, grade 3): 1/3 | Adrenal glands subcapsular cell hyperplasia, incidence [7]: 1/3 | Liver inflammatory cell foci, incidence [7]: 1/3 | Pancreas inflammatory cell foci, incidence [7]: 2/3 | Urinary bladder inflammatory cell foci, incidence [7]: 2/3 | Urinary bladder urothelium vacuolation, incidence [7]: 2/3 | Adrenal glands subcapsular cell hyperplasia, incidence [8]: 2/3 | Liver inflammatory cell foci, incidence [8]: 1/3 | Urinary bladder inflammatory cell foci, incidence [8]: 1/3 | Kidneys hydronephrosis, incidence (female wk 19, treatment group 1, grade 4): 1/3 | Adrenal glands subcapsular cell hyperplasia, incidence [9]: 2/3 | Liver inflammatory cell foci, incidence [9]: 2/3 | Pancreas inflammatory cell foci, incidence [9]: 1/3 | Urinary bladder inflammatory cell foci, incidence [9]: 2/3 | Urinary bladder urothelium vacuolation, incidence [9]: 2/3 | Adrenal glands subcapsular cell hyperplasia, incidence [10]: 1/3 | Spleen extramedullary haematopoiesis, incidence [10]: 1/3 | Urinary bladder urothelium vacuolation, incidence [10]: 1/3 | Adrenal glands subcapsular cell hyperplasia, incidence [11]: 1/3 | Pancreas inflammatory cell foci, incidence [11]: 1/3 | Urinary bladder inflammatory cell foci, incidence [11]: 1/3 | Urinary bladder urothelium vacuolation, incidence [11]: 1/3 | Adrenal glands subcapsular cell hyperplasia, incidence [12]: 2/3 | Kidneys nephropathy, incidence [12]: 1/3 | Pancreas inflammatory cell foci, incidence [12]: 1/3 | Ureter(s) dilatation, incidence [12]: 1/3 | Urinary bladder inflammatory cell foci, incidence [12]: 1/3 | Urinary bladder urothelium vacuolation, incidence [12]: 1/3 | Urinary bladder inflammatory cell foci, incidence (female wk 19, treatment group 3, grade 3): 1/3 | Kidneys hydronephrosis, incidence (female wk 19, treatment group 3, grade 4): 3/3 | Urinary bladder inflammatory cell foci, incidence [13]: 1/3 | Urinary bladder urothelium vacuolation, incidence [13]: 1/3 | Adrenal glands subcapsular cell hyperplasia, incidence (female wk 43, treatment group 1, grade 2): 2/3 | Adrenal glands subcapsular cell hyperplasia, incidence (female wk 43, treatment group 1, grade 3): 1/3 | Ovaries atrophy, incidence [14]: 3/3 | Uterus endometrial hyperplasia, incidence [14]: 3/3 | Liver inflammatory cell foci, incidence [15]: 3/4 | Urinary bladder inflammatory cell foci, incidence [15]: 1/4 | Urinary bladder urothelium vacuolation, incidence [15]: 1/4 | Adrenal glands subcapsular cell hyperplasia, incidence [16]: 3/4 | Lungs alveolar epithelialization, incidence [16]: 1/4 | Adrenal glands subcapsular cell hyperplasia, incidence (female wk 43, treatment group 2, grade 3): 1/4 | Ovaries atrophy, incidence (female wk 43, treatment group 2, grade 4): 3/4 | Kidneys hydronephrosis, incidence (female wk 43, treatment group 2, grade 5): 1/4 | Adrenal glands subcapsular cell hyperplasia, incidence [17]: 4/4 | Pancreas inflammatory cell foci, incidence [17]: 1/4 | Urinary bladder mineralization, incidence [17]: 1/4 | Lungs B-adenoma, incidence [18]: 1/4 | Ureter(s) dilation, incidence [18]: 1/4 | Kidneys hydronephrosis, incidence [19]: 1/4 | Ovaries atrophy, incidence [19]: 4/4 | Kidneys hydronephrosis, incidence (female wk 43, treatment group 3, grade 5): 1/4 | Adrenal glands subcapsular cell hyperplasia, incidence [20]: 1/3 | Pancreas acinar cell degeneration, incidence [20]: 1/3 | Spleen extramedullary haematopoiesis, incidence [21]: 2/3 | Testes germ cell depletion, incidence [21]: 1/3 | Thyroid gland ectopic thymus, incidence (male wk 5, treatment group 1, grade 3): 1/3 | Testes germ cell depletion, incidence (male wk 5, treatment group 2, grade 1): 1/3 | Thyroid gland ectopic thymus, incidence (male wk 5, treatment group 2, grade 3): 1/3 | Prostate gland inflammatory cell foci, incidence [22]: 2/3 | Testes germ cell depletion, incidence [22]: 1/3 | Urinary bladder inflammatory cell foci, incidence [22]: 3/3 | Urinary bladder urothelium vacuolation, incidence [22]: 2/3 | Heart inflammatory cell foci, incidence [23]: 1/3 | Pancreas mineralization, incidence [23]: 1/3 | Urinary bladder mineralization, incidence [23]: 1/3 | Urinary bladder urothelium vacuolation, incidence [23]: 1/3 | Adrenal glands subcapsular cell hyperplasia, incidence [24]: 1/3 | Testes germ cell depletion, incidence [24]: 2/3 | Adrenal glands subcapsular cell hyperplasia, incidence [25]: 1/3 | Spleen extramedullary haematopoiesis, incidence [25]: 1/3 | Thyroid gland ectopic thymus, incidence (male wk 19, treatment group 1, grade 3): 1/3 | Adrenal glands subcapsular cell hyperplasia, incidence [26]: 1/3 | Urinary bladder inflammatory cell foci, incidence [26]: 2/3 | Urinary bladder urothelium vacuolation, incidence [26]: 3/3 | Adrenal glands subcapsular cell hyperplasia, incidence [27]: 1/3 | Pancreas inflammatory cell foci, incidence [27]: 2/3 | Kidneys hydronephrosis, incidence (male wk 19, treatment group 2, grade 3): 1/3 | Kidneys hydronephrosis, incidence (male wk 19, treatment group 2, grade 4): 2/3 | Adrenal glands subcapsular cell hyperplasia, incidence [28]: 2/3 | Urinary bladder urothelium vacuolation, incidence [28]: 1/3 | Adrenal glands subcapsular cell hyperplasia, incidence [29]: 1/3 | Spleen extramedullary haematopoiesis, incidence [29]: 1/3 | Thyroid gland ectopic thymus, incidence (male wk 19, treatment group 3, grade 3): 1/3 | Kidneys hydronephrosis, incidence (male wk 19, treatment group 3, grade 4): 2/3 | Adrenal glands subcapsular cell hyperplasia, incidence [30]: 2/3 | Kidneys inflammatory cell foci, incidence [30]: 1/3 | Kidneys nephropathy, incidence [30]: 2/3 | Pancreas acinar cell degeneration, incidence [30]: 1/3 | Pancreas inflammatory cell foci, incidence [30]: 1/3 | Skin inflammatory cell foci, incidence [30]: 1/3 | Skin scab formulation, incidence [30]: 1/3 | Urinary bladder inflammatory cell foci, incidence [30]: 1/3 | Adrenal glands subcapsular cell hyperplasia, incidence [31]: 1/3 | Pancreas inflammatory cell foci, incidence [31]: 2/3 | Adrenal glands subcapsular cell hyperplasia, incidence [32]: 2/4 | Kidneys nephropathy, incidence [32]: 1/4 | Urinary bladder inflammatory cell foci, incidence [32]: 2/4 | Urinary bladder urothelium vacuolation, incidence [32]: 1/4 | Adrenal glands subcapsular cell hyperplasia, incidence [33]: 1/4 | Kidneys nephropathy, incidence [33]: 1/4 | Pancreas inflammatory cell foci, incidence [33]: 2/4 | Urinary bladder inflammatory cell foci, incidence [33]: 1/4 | Adrenal glands subcapsular cell hyperplasia, incidence (male wk 43, treatment group 2, grade 3): 1/4 | Kidneys hydronephrosis, incidence (male wk 43, treatment group 2, grade 4): 2/4 | Adrenal glands subcapsular cell hyperplasia, incidence [34]: 3/4 | Kidneys nephropathy, incidence [34]: 1/4 | Liver inflammatory cell foci, incidence [34]: 2/4 | Pancreas inflammatory cell foci, incidence [34]: 2/4 | Skin inflammatory cell foci, incidence [34]: 1/4 | Testes germ cell depletion, incidence [34]: 1/4 | Adrenal glands subcapsular cell hyperplasia, incidence [35]: 1/4 | Kidneys cyst/s, incidence [35]: 1/4 | Epididymides spermatic granuloma, incidence [36]: 1/4 | Ureter(s) dilation, incidence [36]: 1/4 | Kidneys hydronephrosis, incidence (male wk 43, treatment group 3, grade 4): 3/4 | Cytoplasmic vacuolation of urothelial cells, incidence (week 5, female treatment group 2, minimal or mild): 3/3 | Cytoplasmic vacuolation of urothelial cells, incidence (week 5, female treatment group 3, minimal or mild): 3/3 | Cytoplasmic vacuolation of urothelial cells, incidence (week 5, male treatment group 3, minimal or mild): 3/3 | Cytoplasmic vacuolation of urothelial cells, incidence (week 19, all female treatment groups): 7/9 | Hydronephrosis, incidence (week 19, female treatment group 1): 1/3 | Hydronephrosis, incidence (week 19, female treatment group 3): 3/3 | Cytoplasmic vacuolation of urothelial cells, incidence [37]: 3/3 | Hydronephrosis, incidence [37]: 3/3 | Hydronephrosis, incidence (week 19, male treatment group 3): 2/3 | Marked ovarian atrophy, incidence (week 43, all treated females): 10/11 | Marked or severe hydronephrosis, incidence (week 43, female treatment group 2): 1/4 | Marked or severe hydronephrosis, incidence (week 43, female treatment group 3): 2/4 | Marked or severe hydronephrosis, incidence (week 43, male treatment group 2): 2/4 | Marked or severe hydronephrosis, incidence (week 43, male treatment group 3): 3/4
